For test [1], the target named is T1, human ENPP3 (human, UniProt O14638 46-875, limits assumed).
T1 construct: neither the construct nor the method is stated; also called ectonucleotide pyrophosphatase/phosphodiesterase family member 3
T1 sequence (looked up): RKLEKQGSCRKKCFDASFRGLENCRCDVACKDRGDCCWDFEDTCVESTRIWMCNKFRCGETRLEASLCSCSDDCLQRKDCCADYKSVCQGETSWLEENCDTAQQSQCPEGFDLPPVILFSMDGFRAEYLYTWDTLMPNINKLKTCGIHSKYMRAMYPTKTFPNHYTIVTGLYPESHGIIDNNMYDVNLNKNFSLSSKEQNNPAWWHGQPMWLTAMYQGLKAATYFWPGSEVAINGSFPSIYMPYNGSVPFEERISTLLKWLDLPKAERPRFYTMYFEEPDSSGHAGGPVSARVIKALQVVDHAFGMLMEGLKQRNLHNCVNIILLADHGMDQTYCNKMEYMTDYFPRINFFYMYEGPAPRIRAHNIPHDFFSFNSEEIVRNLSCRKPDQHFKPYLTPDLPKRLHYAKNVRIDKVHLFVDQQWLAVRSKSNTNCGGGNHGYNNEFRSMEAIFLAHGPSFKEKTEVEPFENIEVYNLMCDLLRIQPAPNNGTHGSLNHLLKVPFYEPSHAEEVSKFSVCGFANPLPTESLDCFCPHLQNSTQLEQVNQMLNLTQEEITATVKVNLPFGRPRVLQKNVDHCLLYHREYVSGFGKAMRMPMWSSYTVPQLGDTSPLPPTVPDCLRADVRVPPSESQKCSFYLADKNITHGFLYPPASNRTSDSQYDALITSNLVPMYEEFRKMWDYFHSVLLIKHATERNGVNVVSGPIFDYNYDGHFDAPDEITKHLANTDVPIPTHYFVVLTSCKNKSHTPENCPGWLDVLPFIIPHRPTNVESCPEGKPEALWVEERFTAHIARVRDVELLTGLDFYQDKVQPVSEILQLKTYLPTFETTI
In words: binding affinity to human ENPP3; method not stated.

Test [2] addresses T2, cynomolgus monkey ENPP3 (cynomolgus monkey, UniProt A0A2K5TKP4 46-874).
T2 construct: also called cyno ENPP3
T2 sequence: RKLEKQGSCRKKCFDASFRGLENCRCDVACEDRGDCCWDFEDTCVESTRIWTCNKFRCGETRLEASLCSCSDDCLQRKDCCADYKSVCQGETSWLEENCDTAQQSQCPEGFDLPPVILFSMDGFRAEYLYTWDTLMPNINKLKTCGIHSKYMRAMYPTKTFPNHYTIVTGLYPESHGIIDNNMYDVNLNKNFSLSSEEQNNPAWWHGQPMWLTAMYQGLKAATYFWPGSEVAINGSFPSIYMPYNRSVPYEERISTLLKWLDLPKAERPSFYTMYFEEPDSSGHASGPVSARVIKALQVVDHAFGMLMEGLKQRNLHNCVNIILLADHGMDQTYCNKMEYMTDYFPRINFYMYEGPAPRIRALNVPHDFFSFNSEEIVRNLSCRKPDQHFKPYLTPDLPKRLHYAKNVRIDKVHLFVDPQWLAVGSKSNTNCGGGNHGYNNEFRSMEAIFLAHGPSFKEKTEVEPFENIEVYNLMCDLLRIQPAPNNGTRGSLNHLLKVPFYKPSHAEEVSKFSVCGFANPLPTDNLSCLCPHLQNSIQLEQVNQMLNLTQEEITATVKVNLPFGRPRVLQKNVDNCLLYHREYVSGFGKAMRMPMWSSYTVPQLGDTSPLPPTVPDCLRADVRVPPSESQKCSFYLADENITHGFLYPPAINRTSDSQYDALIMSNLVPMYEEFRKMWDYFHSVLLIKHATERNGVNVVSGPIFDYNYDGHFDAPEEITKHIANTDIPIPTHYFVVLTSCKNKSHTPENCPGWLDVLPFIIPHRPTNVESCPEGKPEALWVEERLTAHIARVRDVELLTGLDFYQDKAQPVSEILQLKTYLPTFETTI
In words: binding affinity to cyno ENPP3; method not stated.

Test [3] deals with ENPP2 on CHOK1 cells (UniProt Q13822 36-863). In words: flow cytometry on CHO cells overexpressing ENPP2.
Test [4] has as its target T3, ENPP1 on CHOK1 cells (UniProt P22413 1-925, limits assumed).
T3 construct: whole, on cells; also called ectonucleotide pyrophosphatase/phosphodiesterase family member 1; CHO ENPP1 OE
T3 sequence (looked up): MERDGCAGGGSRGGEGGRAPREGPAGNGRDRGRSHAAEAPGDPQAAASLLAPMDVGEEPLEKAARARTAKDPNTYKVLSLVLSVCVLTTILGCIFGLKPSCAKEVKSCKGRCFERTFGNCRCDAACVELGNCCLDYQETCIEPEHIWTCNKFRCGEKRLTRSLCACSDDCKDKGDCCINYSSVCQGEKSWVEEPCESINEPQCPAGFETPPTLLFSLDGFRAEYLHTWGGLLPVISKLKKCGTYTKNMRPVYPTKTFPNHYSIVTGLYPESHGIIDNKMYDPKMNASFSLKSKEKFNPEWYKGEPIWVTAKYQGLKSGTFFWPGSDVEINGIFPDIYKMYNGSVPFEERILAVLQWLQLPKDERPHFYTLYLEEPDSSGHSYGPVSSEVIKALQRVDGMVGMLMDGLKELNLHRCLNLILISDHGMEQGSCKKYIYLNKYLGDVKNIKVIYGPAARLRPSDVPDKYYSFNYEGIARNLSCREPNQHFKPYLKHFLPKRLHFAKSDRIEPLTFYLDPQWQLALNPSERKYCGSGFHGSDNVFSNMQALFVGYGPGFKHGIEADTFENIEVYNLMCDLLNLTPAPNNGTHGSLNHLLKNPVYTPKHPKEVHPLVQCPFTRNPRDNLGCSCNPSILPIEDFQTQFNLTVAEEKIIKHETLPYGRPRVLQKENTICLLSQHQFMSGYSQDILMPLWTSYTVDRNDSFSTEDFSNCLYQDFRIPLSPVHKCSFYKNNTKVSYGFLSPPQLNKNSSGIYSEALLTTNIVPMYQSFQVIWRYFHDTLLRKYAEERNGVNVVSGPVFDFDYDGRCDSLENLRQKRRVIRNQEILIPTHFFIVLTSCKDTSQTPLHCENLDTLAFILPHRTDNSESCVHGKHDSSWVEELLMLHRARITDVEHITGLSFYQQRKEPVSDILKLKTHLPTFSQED
The test is described as follows: flow cytometry on CHO cells overexpressing ENPP1.

Test [5] has as its target T4, human ENPP3 on cells (human, UniProt O14638 1-875).
T4 construct: whole, on cells; also called ENPP3 on A704, VMRCRCW, HepG2, TUHR4TKB, TUHR10TKB; CHO-K1 ENPP3 OE
T4 sequence (looked up): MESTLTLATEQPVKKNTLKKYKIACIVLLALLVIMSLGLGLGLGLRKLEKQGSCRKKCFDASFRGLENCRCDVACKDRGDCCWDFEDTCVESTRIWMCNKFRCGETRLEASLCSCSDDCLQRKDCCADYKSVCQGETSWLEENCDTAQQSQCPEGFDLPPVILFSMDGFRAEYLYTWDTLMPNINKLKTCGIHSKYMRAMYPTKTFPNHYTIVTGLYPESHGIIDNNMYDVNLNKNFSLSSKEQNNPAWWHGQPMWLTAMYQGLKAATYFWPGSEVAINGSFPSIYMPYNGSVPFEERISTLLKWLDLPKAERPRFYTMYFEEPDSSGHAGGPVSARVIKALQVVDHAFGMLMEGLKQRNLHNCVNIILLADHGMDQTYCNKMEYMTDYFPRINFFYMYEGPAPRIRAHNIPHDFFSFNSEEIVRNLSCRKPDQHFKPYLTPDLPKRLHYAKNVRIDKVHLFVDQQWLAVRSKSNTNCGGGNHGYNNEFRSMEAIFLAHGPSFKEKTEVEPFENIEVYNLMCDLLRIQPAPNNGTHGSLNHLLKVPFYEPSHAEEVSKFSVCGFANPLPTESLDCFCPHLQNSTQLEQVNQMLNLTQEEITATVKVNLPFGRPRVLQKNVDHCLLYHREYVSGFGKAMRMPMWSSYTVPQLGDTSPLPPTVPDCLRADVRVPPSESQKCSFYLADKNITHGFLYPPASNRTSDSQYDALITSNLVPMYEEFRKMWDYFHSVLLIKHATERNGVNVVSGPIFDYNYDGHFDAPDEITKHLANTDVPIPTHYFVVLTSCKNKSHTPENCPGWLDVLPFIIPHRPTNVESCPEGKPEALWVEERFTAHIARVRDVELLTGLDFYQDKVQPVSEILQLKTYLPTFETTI
The test is described as follows: flow cytometry on CHO cells overexpressing ENPP3. The method, then:
To evaluate the specificity of binders to ENPP3 compared to other ENPP family members, cell binding was assessed on CHOK1 cells overexpressing ENPP1, ENPP2, or ENPP3 (FIG. 9).

Residue numbers refer to the chain shown, from its start.

B1: NPP3B101 (antibody, V domains shown)
VH: QVQLQESGPGLVKTSETLSLTCTVSGGSISSHYWSWIRQPPGKGLEWIGNIFYSGSTNYNPSLKSRVTMSVDTSKNHFSLKLISVTTADTAIYYCARHDHVWFDPWGQGTLVTVSS
VL: EIVLTQSPGTLSVFPGERATLSCRASQSVSRNLVWYQQKPGQAPRLLIYGASTRATGIPDRFSGSGSGTEFTLTISSLQSEDFAVYYCQQYNNWPPWTFGQGTKVEIK
notes: mAb from Ablexis Kappa mice
Consider B1, for which the Kd turned out to be 0.193 nM in test [1] and 9.58 nM in test [2].

B2: NPP3B61 (antibody, V domains shown)
VH: QVQLQESGPGLVRPSETLSLTCTVSGGSISSYYWSWIRQPAGKGLEWIGRIYTTGRIYTSGYTNYNPSLKSRVTMSIDTSKIQFSLRLNSVTAADTAVYWCARGGELFTDGFDIWGQGTMVTVSS
VL: EIVMTQSPGTLSLSPGERATLSCRASQSVISTYLAWYQQNPGQAPRLLIYGASSRATGIPDRFSGSGSGTDFTLTISRLEPEDFAVYYCQQYDTSPITFGQGTRLEIK
notes: mAb from Ablexis Kappa mice
For B2, the dissociation constant (Kd) in test [1] is 0.443 nM; in test [2], 109 nM.

B3: NPP3B62 (antibody, V domains shown)
VH: B2 VH
VL: B2 VL with A85V
notes: mAb from Ablexis Kappa mice
Take B3: the Kd in test [1] was determined as 0.258 nM; in test [2], 12 nM.

B4: NPP3B232 (bispecific antibody, IgG1)
VH: QVQLQESGPGLVKPSETLSLTCTVSGGSISNYYWSWIRQPAGKGLEWIGRIYASGSTNYNPSLKSRVTMSVDTSKNQFSLRLRSVTATDTAVYYCAREGYSSTLYDNAFDFWGQGTMVTVSS
VL: DIQMTQSPSSVSASVGGRVTITCRASQGISTWLAWYQQKPGKAPKLLIYAASSLQSGVPSRFSGSGSGTDFTLTISSLQPEDFATYYCQQANSFPLTFGGGTKVEIK
scFv: EIVLTQSPATLSASPGERVTLSCSASSSVSYMNWYQQKPGQAPRRWIYDSSKLASGVPARFSGSGSGRDYTLTISSLEPEDFAVYYCQQWSRNPPTFGGGTKVEIKGGSEGKSSGSGSESKSTGGSQVQLVQSGAEVKKPGSSVKVSCKASGYTFTRSTMHWVKQAPGQGLEWIGYINPSSAYTNYNQKFQGRVTLTADKSTSTAYMELSSLRSEDTAVYYCASPQVHYDYAGFPYWGQGTLVTVSS
notes: Fab-IgG1 (hole) plus scFv-Fc in VL-linker-VH-Fc orientation
For the molecule B4, the binding result in test [3] and in test [4] was “no binding (tested: Log(ug/mL) about 1.1 (about 12 ug/mL))” in each case. In test [5], the “EC50 (read off the curve)” value is roughly 0.5 µg/mL.

B5: NPP3B239 (bispecific antibody, IgG1)
VH: EVQLVESGGGLVKPGGSLRLSCAASGFIFSDYSMNWVRQAPGKGLEWVSSISSGSSYIYYADSLKGRFTISRDNAKNSLYLQMSSLRAEDTAVYYCVRGLDYFDYWGQGALVTVSS
VL: DIQMTQSPSFLSASVGDRVTITCRASQDISNYLAWYQQKPGRAPKLLIYVASTLQSGVPSRFSGSGSGTEFTLTISSLQPEDFATYYCQQLNSYPRTFGQGTKVEIK
scFv: B4 scFv
notes: Fab-IgG1 (hole) plus scFv-Fc in VL-linker-VH-Fc orientation; also called NPP3B239.003
With B5, the binding result in test [3] and in test [4] was “no binding (tested: Log(ug/mL) about 1.1 (about 12 ug/mL))” throughout. For the same molecule, in test [5], the “EC50 (read off the curve)” value was roughly 1 µg/mL.
